Source: US20260209325A1 (SCHOLAR ROCK, published 2026)

Assays:
[1] = molecular target: T1, recombinant human latent myostatin (human, UniProt O14793 24-375, biotinylated (in the Octet pH assay only)); assay: cell-based or functional assay
murine pro-myostatin [2] = molecular target: T2, murine pro-myostatin (mouse, UniProt O08689 25-376, biotinylated (in the SPR assay)); assay: SPR Biacore 8K, biotin-antigen captured
T2 construct: also called proGDF8 (mouse); mouse pro-myostatin

human GDF-11 = human GDF-11 (human, UniProt O95390 299-407, limits assumed); assay: plate binding assay, OD 450 nm, one antibody concentration that is not given, on Hu-GDF-11 (method not described in the text)
mouse GDF-11 = mouse GDF-11 (mouse, UniProt Q9Z1W4 297-405, limits assumed); assay: plate binding assay, OD 450 nm, one antibody concentration that is not given, on Mu-GDF-11 (method not described in the text)
murine pro-myostatin [3] = molecular target: T2, murine pro-myostatin; assay: plate binding assay, OD 450 nm, antibody titrated 0.0003 to 100 nM, panel 'Mu-Pro-GDF-8 Plate 3' (method not described in the text)
[4] = molecular target: T1, recombinant human latent myostatin; assay: cell-based or functional assay; remark: listed apart in the source
[5] = molecular target: T1, recombinant human latent myostatin; assay: cell-based or functional assay; remark: listed apart in the source
human pro-myostatin [6] = molecular target: T3, human pro-myostatin (human, UniProt O14793 24-375, biotinylated (in the SPR assay)); assay: SPR Biacore 8K, biotin-antigen captured
T3 construct: Disulfide-linked homodimer; also called proGDF8 (human)

cyno pro-myostatin = molecular target: T4, cyno pro-myostatin (cynomolgus monkey, Biotinylated for capture in the SPR assay (site not stated). The native form is a disulfide-linked homodimer, partly furin-cleaved; one chain is given.); assay: SPR Biacore 8K, biotin-antigen captured
T4 construct: also called proGDF8 (cynomolgus); cynomolgus monkey pro-myostatin

human pro-myostatin [7] = molecular target: T3, human pro-myostatin; assay: Ab KD, summary Table 11; method and antigen not stated there
[8] = molecular target: T1, recombinant human latent myostatin; assay: BLI Octet Red384, biotin human latent myostatin on streptavidin tips
Experimental: (§1) Binding was performed at pH 7.4 and dissociation at pH 5.5 in an Octet Red384@assay. Streptavidin biosensors were baselined in 1x kinetics buffer (KB) (Sartorius) for one minute, then loaded with 100 nM biotinylated human latent myostatin for five minutes, followed by another baseline step of one minute in 1x KB. Binding of test antibodies was performed for five minutes and then dissociation was performed in PBS at either pH 7.4 or pH 5.5 for five minutes. Analysis was performed using a partial fit, in which full dissociation was projected. Kd at pH 5.5 was divided by Kd at pH 7.4 to calculate pH sensitivity.

human pro-myostatin [9] = molecular target: T3, human pro-myostatin; assay: cell-based or functional assay
[10] = molecular target: T1, recombinant human latent myostatin; assay: BLI (Octet Red384): streptavidin biosensors loaded with biotinylated human latent myostatin, antibody association 300 s, dissociation in PBS at pH 7.4 or pH 5.5
Experimental: as §1

murine pro-myostatin [11] = molecular target: T2, murine pro-myostatin; assay: plate binding assay, OD 450 nm, antibody titrated 0.0003 to 100 nM, panel 'Mu-Pro-GDF-8 Plate 2' (method not described in the text)
human pro-myostatin [12] = molecular target: T3, human pro-myostatin; assay: plate binding assay, OD 450 nm, antibody titrated 0.0003 to 100 nM, panel 'Hu-Pro-GDF-8 Plate 2' (method not described in the text)

human GDF-11, sequence (O95390 299-407 limits assumed): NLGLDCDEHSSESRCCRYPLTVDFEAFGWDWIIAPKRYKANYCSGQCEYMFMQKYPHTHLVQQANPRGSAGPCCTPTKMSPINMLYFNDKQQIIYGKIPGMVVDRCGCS
mouse GDF-11, sequence (Q9Z1W4 297-405 limits assumed): as the sequence (O95390 299-407 limits assumed) above

Binder	IC50 (nM) Latent + mTLL2 [1]	Kd (murine pro-myostatin [2])	koff (murine pro-myostatin [2])	kon (murine pro-myostatin [2])	binding result (human GDF-11)	binding result (mouse GDF-11)	mTLL2 IC50 [5]	Kd (human pro-myostatin [6])	koff (human pro-myostatin [6])	kon (human pro-myostatin [6])	Kd (human pro-myostatin [7])	fold difference in off-rate (Kd at pH 5.5 / Kd at pH 7.4) [8]	further results
Ab125 (antibody, human IgG4 S228P, kappa, V domains shown) VH: EVQLVQSGAEVKKPGESLKISCKGSGNRISDYWMNWVRQVPGKGLEWMGNIYPGYSDATYNRKFKGQVTISADKSISTAYLQWSSLKASDTAIYYCARGRDGYNYFAAFDIWGQGTMVTVSS VL: EIVLTQSPATLSLSPGERATLSCRASQSVASSYLAWYQQKPGQAPRLLIYDTSSRAAGIPARFSGSGSGTDFTLTISSLEPEDFAVYYCHQYGSSLTTFGGGTKVEIKR	0.202 nM	0.125 nM	0.000411 s⁻¹	3.29e+06 M⁻¹ s⁻¹	no binding	no binding	–	–	–	–	–	–	EC50 (read off the curve) (murine pro-myostatin [3]): ~0.2 nM
Ab133 (antibody, human IgG4 S228P, kappa, V domains shown, human IgG4 in the EM experiment; also called Ab133 Human IgG4) VH: EVQLVESGGGLVQPGGSLRLSCAASGFTFSSYGMSWVRQAPGKGLELVASFTGSGGAYYPDSVKGRFTISRDNAKNSLYLQMNSLRAEDTAVYYCARDLLIRFLEWSHYYGMDVWGQGTTVTVSS VL: DIVMTQSPLSLPVTPGEPASISCRSSQSLLHSSGHNFLHWYLQKPGQSPQLLIYEVSNRVSGVPDRFSGSGSGTDFTLKISRVEAEDVGVYYCQQQTQYPGTFGGGTKVEIKR	0.161 nM	0.054 nM	0.000162 s⁻¹	3.01e+06 M⁻¹ s⁻¹	–	–	0.161 nM	0.041 nM	0.000116 s⁻¹	2.84e+06 M⁻¹ s⁻¹	0.041 nM	17.5 fold	IC50 of inhibition of myostatin activation by mTLL-2 (functional ELISA, FIG. 1B) [4]: 0.16 nM; Kd (cyno pro-myostatin): 0.0383 nM; koff (cyno pro-myostatin): 0.000109 s⁻¹; kon (cyno pro-myostatin): 2.86e+06 M⁻¹ s⁻¹
Ab130 (antibody, human IgG4 S228P, kappa, V domains shown) VH: EVQLVESGGGLVQPGGSLRLSCAASGFTFTSYGMSWVRQAPGKGLELVASITGSGGETYYPDSVKGRFTISRDNAKNSLYLQMNSLRAEDTAVYYCARDLLVRFLEWSHYYGMDVWGQGTTVTVSS VL: DIVMTQSPLSLPVTPGEPASISCRSSQSLLHSSGHNFLHWYLQKPGQSPQLLIYETSNRAPGIPDRFSGSGSGTDFTLKISRVEAEDVGVYYCQQATQFPRPFGGGTKVEIKR	–	–	–	–	–	–	0.33 nM	–	–	–	0.35 nM	10.6 fold	IC50 of inhibition of myostatin activation by mTLL-2 (functional ELISA, FIG. 1A) [4]: 0.31 nM; IC50 of inhibition of myostatin activation by mTLL-2 (functional ELISA, FIG. 1B) [4]: 0.3 nM
Ab105 (antibody, human IgG4 S228P, kappa, V domains shown) VH: EVQLVESGGGLVQPGGSLRLSCAASGSAFSSYGMSWVRQAPGKGLELVASIGGTGATYYPDSVKGRFTISRDNAKNSLYLQMNSLRAEDTAVYYCARDLLVRFLEWGHYYGMDVWGQGTTVTVSS VL: DIVMTQSPLSLPVTPGEPASISCRSSQSLLHSSGYNFLHWYLQKPGQSPQLLIYAASSRAPGIPDRFSGSGSGTDFTLKISRVEAEDVGVYYCMHGGQGPTFGGGTKVEIKR	0.25 nM	0.046 nM	0.000276 s⁻¹	5.99e+06 M⁻¹ s⁻¹	–	–	0.25 nM	0.051 nM	0.000247 s⁻¹	4.89e+06 M⁻¹ s⁻¹	0.229 nM	0.8 fold	IC50 (nM) Pro + Furin (human pro-myostatin [9]): 0.356 nM; Kd (cyno pro-myostatin): 0.044 nM; koff (cyno pro-myostatin): 0.000233 s⁻¹; kon (cyno pro-myostatin): 5.26e+06 M⁻¹ s⁻¹
Ab140 (antibody, human IgG4 S228P, kappa, V domains shown) VH: EVQLVESGGGLVQPGGSLRLSCAASGFTFSSYGMSWVRQAPGKGLELVASFTGSGGTYYPDSVKGRFTISRDNAKNSLYLQMNSLRAEDTAVYYCARDNLIRFLEWSHYYGMDVWGQGTTVTVSS VL: DIVMTQSPLSLPVTPGEPASISCRSSQSLLHSSGHNFLHWYLQKPGQSPQLLIYEVSNRESGVPDRFSGSGSGTDFTLKISRVEAEDVGVYYCQQQTQYPPTFGGGTKVEIKR	–	–	–	–	–	–	–	0.109 nM	0.000711 s⁻¹	6.53e+06 M⁻¹ s⁻¹	–	–	fold difference in off-rate (Kd at pH 5.5 / Kd at pH 7.4) [10]: 10.4 fold
Ab102 (antibody, human IgG4 S228P, kappa, V domains shown) VH: EVQLVESGGGLVQPGGSLRLSCAASGFTFTSYGMSWVRQAPGKGLELVASITGSGGETYYPDSVKGRFTISRDNAKNSLYLQMNSLRAEDTAVYYCARDLLVRFLEWSHYYGMDVWGQGTTVTVSS VL: DIVMTQSPLSLPVTPGEPASISCRSSQSLLHSSGHNFLHWYLQKPGQSPQLLIYETSNRAPGIPDRFSGSGSGTDFTLKISRVEAEDVGVYYCMQATQFPRPFGGGTKVEIKR	0.162 nM	0.082 nM	0.0005 s⁻¹	6.11e+06 M⁻¹ s⁻¹	–	–	0.346 nM	0.058 nM	0.000376 s⁻¹	6.49e+06 M⁻¹ s⁻¹	0.329 nM	9.3 fold	IC50 (nM) Pro + Furin (human pro-myostatin [9]): 0.211 nM; Kd (cyno pro-myostatin): 0.049 nM; koff (cyno pro-myostatin): 0.000335 s⁻¹; kon (cyno pro-myostatin): 6.8e+06 M⁻¹ s⁻¹
Ab131 (antibody, human IgG4 S228P, kappa, V domains shown) VH: EVQLVESGGGLVQPGGSLRLSCAASGSAFSSYGMSWVRQAPGKGLELVASIGGTGATYYPDSVKGRFTISRDNAKNSLYLQMNSLRAEDTAVYYCARDLLVRFLEWGHYYGMDVWGQGTTVTVSS VL: DIVMTQSPLSLPVTPGEPASISCRSSQSLLHSSGYNFLHWYLQKPGQSPQLLIYAASSRAPGIPDRFSGSGSGTDFTLKISRVEAEDVGVYYCQHGGQGPTFGGGTKVEIKR	–	–	–	–	–	–	0.208 nM	–	–	–	0.155 nM	0.9 fold	–
Ab120 (antibody, human IgG4 S228P, kappa, V domains shown) VH: QVQLVQSGAEVKKPGASVKVSCKVSGGTFSTFHIHWVRQAPGKGLEWMGGISAYSGSTIYAQKFQGRVTMTEDTSTDTAYMELSSLKSEDTAVYYCARARYVDDAFDIWGQGTMVTVSS VL: DIQMTQSPSSVSASVGDRVTITCRASEDISNFLAWYQQKPGKAPKLLIYAASDLLSGVPSRFSGSGSGTDFTLTISSLQPEDFANYYCQKYISAPSFGGGTKVEIKR	–	–	–	–	no binding	no binding	–	–	–	–	–	–	binding result (murine pro-myostatin [11]): binds
Ab117 (antibody, human IgG4 S228P, kappa, V domains shown) VH: QVQLVQSGAEVKKPGASVKVSCKVSGGTFSSHDIHWVRQAPGKGLEWMGGINPSDASTIYAQKFQGRVTMTEDTSTDTAYMELSSLKSEDTAVYYCARDLRGYSYGAETWHFQHWGQGTLVTVSS VL: DIQMTQSPSSVSASVGDRVTITCRASQYISNYLAWYQQKPGKAPKLLIYETSRLESGVPSRFSGSGSGTDFTLTISSLQPEDFANYYCQQTSSTPLTFGGGTKVEIKR	–	–	–	–	no binding	no binding	–	–	–	–	–	–	binding result (human pro-myostatin [12]): binds; binding result (murine pro-myostatin [11]): binds
Ab119 (antibody, human IgG4 S228P, kappa, V domains shown) VH: QVQLVQSGAEVKKPGASVKVSCKVSGYTFTKDHIHWVRQAPGKGLEWMGGITPSSGDTIYAQKFQGRVTMTEDTSTDTAYMELSSLKSEDTAVYYCARDHMVRGLPNYYYGMDLWGQGTTVTVSS VL: DIQMTQSPSSVSASVGDRVTITCRASRDIANYLAWYQQKPGKAPKLLIYAASILQNGVPSRFSGSGSGTDFTLTISSLQPEDFANYYCQQAYTTPPTFGGGTKVEIKR	–	–	–	–	no binding	no binding	–	–	–	–	–	–	binding result (human pro-myostatin [12]): binds; binding result (murine pro-myostatin [11]): binds
Ab116 (antibody, human IgG4 S228P, kappa, V domains shown) VH: QVQLVQSGAEVKKPGASVKVSCKVSGFTFSRPAIHWVRQAPGKGLEWMGGINPNAATTIYAQKFQGRVTMTEDTSTDTAYMELSSLKSEDTAVYYCARGRLLREWELRPYDTWGQGTLVTVSS VL: DIQMTQSPSSVSASVGDRVTITCRASQSIGKSLAWYQQKPGKAPKLLIYSASNLRSGVPSRFSGSGSGTDFTLTISSLQPEDFANYYCQQYRDVPPITFGGGTKVEIKR	–	–	–	–	no binding	no binding	–	–	–	–	–	–	EC50 (read off the curve) (human pro-myostatin [12]): ~1 nM; EC50 (read off the curve) (murine pro-myostatin [11]): ~1 nM
